The values below are quoted from earlier work in publication PMC5803174.

The term Kd denotes the equilibrium constant for the complex coming apart.

Data set [1] addresses beta-cardiac myosin proximal S2 (Homo sapiens) (UniProt P12883).
Data set [2] concerns the target beta-cardiac myosin short S1 (Homo sapiens) (UniProt P12883).

MyBP-C C1-C2 (from UniProt Q14896): the Kd in data set [1] was 5 µM.

Regarding cardiac MyBP-C (from UniProt Q14896), the Kd in data set [2] was 17.5 µM.
